Biological target: T1, K-RAS protein (recombinant, abcam) (UniProt P01116-2 1-188, limits assumed)
T1 construct: Bought recombinant protein used in solution in the far western; One partner was labelled with the cysteine-reactive dye NT-647
Test: quantification of the anti-RAS far western of FIG. 2E; two VAMP3 preparations
Procedure: Far Western Blotting. […] The membrane was then washed in 5% milk in TBST and incubated with horseradish peroxidase (HRP)-conjugated secondary antibody for 1 hr at RT. The membrane was then developed using the SuperSignal West Dura reagent (ThermoFischer). Quantification was done using ImageJ. For loading controls, duplicate membranes were spotted and immediately stained with a Coomassie Stain Kit (Biorad).

B1: VAMP3 (recombinant, LSbiosciences / MyBiosource) (other, UniProt Q15836 1-77, looked up)
chain: MSTGPTAATGSNRRLQQTQNQVDEVVDIMRVNVDKVLERDQKLSELDDRADALQAGASQFETSAAKLKRKYWWKNCK
notes: Two commercial preparations were spotted in the far western; also called vesicle-associated membrane protein 3
B1: no binding (tested: 2 µg spotted).

— patent US20190314470A1 (UNITED STATES GOVERNMENT AS REPRESENTED BY THE DEPARTMENT …, published 2019)
